Data from patent US20210341478A1 (ANTAIMMU BIOMED, published 2021).

B1: NP-3 IgG (antibody, V domains shown)
VH: EVQLVESGGGLVQPGGSLRLSCAASGFTITDYGIHWVRQAPGKGLEWVAYIGPSDGDTHYADSVKGRFTISADTSKNTAYLQMNSLRAEDTAVYYCARTGGYNSWYMDYWGQGTLVTVSS
VL: DIQMTQSPSSLSASVGDRVTITCRASQDVNNWVAWYQQKPGKAPKLLIYFTSYLYSGVPSRFSGSGSGTDFTLTISSLQPEDFATYYCQQHSTYPFTFGQGTKVEIKR
B2: NP-4 IgG (antibody, V domains shown)
VH: EVQLVESGGGLVQPGGSLRLSCAASGFTITNWWIHWVRQAPGKGLEWVAAISPFNGKTHYADSVKGRFTISADTSKNTAYLQMNSLRAEDTAVYYCARLLSIYDYWGQGTLVTVSS
VL: DIQMTQSPSSLSASVGDRVSITCRASQDVWYYVAWYQQKPGKAPKLLISRTNWLDSGVPSRFSGSGSGTDFTLTISSLQPEDFATYYCQQYSDYPLTFGQGTKVEIKR

Biological target: T1, nucleocapsid protein of SARS-CoV-2 expressed in HEK-293 cells (SARS-CoV-2, UniProt P0DTC9 1-419)
T1 construct: also called 293-NP; 293-NP cell lysates
Experiment: ELISA on HEK-293 lysate 293-NP (FIG. 3)

Binder	binding result
B1	binds
B2	binds
